Results taken from patent publication US20240352113A1 (JIANGSU HENGRUI PHARMACEUTICALS, published 2024).

How the values were obtained:
Test in all cases: cell-based or functional assay
[1] = target: T1, human ANGPTL3(17-170)-Flag-His (human, UniProt Q9Y5C1 17-170)
T1 sequence: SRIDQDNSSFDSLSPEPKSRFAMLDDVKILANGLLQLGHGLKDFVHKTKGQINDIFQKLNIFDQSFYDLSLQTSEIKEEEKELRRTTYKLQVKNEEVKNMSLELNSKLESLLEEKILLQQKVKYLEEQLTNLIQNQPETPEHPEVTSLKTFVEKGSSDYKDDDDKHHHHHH

[2] = target: T2, mouse ANGPTL3(17-455)-His (mouse, UniProt Q9R182 17-455, biotin-labeled in the ELISA and HTRF assays (sites not given))
T2 sequence: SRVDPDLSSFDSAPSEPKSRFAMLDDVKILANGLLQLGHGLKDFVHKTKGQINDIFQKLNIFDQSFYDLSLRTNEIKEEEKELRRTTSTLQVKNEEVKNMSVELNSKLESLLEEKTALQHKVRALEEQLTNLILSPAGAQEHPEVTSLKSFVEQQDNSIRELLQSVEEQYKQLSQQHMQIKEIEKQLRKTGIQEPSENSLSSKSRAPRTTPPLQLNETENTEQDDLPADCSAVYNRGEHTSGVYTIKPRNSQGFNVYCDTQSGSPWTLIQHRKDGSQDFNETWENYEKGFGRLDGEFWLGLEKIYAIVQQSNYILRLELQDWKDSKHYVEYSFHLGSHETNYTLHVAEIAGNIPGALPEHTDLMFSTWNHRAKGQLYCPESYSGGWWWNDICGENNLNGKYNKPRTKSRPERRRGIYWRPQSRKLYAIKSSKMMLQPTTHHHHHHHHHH

[3] = target: T3, cynomolgus monkey ANGPTL3(17-460)-His (cynomolgus monkey, UniProt Q9Y5C1 17-460 (human entry), biotin-labeled in the ELISA and HTRF assays (sites not given))
T3 chain: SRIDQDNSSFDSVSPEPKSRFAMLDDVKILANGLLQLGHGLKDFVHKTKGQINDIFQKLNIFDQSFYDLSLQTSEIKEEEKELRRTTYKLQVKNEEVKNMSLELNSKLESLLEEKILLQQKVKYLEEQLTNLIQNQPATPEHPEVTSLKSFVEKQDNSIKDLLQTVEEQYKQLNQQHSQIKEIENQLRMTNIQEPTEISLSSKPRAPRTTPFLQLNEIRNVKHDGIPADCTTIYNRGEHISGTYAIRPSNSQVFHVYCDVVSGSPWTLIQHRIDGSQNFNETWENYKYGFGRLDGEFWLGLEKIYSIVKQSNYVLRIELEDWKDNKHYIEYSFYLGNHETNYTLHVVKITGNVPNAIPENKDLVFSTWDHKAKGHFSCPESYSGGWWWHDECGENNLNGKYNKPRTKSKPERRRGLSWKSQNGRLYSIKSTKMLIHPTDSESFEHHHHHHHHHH

rat ANGPTL3(17-455)-His = target: T4, rat ANGPTL3(17-455)-His (rat, biotin-labeled in the ELISA and HTRF assays (sites not given))
T4 chain: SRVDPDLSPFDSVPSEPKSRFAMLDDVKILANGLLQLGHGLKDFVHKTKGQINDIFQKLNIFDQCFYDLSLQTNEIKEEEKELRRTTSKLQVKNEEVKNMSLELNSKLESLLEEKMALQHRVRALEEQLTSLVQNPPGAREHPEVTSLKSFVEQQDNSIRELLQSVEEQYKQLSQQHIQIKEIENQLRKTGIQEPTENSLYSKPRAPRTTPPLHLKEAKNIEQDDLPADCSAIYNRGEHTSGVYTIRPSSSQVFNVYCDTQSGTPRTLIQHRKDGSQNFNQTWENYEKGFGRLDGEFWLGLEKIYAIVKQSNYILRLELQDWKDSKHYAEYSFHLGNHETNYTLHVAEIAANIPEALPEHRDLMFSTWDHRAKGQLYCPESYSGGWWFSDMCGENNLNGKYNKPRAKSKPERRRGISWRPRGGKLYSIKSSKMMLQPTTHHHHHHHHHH

- IC50 (nM), activity in blocking the inhibition of LPL by ANGPTL3 (bovine LPL enzyme activity assay) [1]: 75.3 nM
- IC50 (nM), activity in blocking the inhibition of LPL by ANGPTL3 (bovine LPL enzyme activity assay) [2]: 41.5 nM
- IC50 (nM), activity in blocking the inhibition of LPL by ANGPTL3 (bovine LPL enzyme activity assay) [3]: 53.6 nM
- IC50 (nM), activity in blocking the inhibition of LPL by ANGPTL3 (bovine LPL enzyme activity assay) (rat ANGPTL3(17-455)-His): 132 nM
B1: P8BG (antibody, human IgG4 S228P, kappa, V domains shown)
VH: QVQLVQSGAEVKKPGASVKVSCKASGYTFTSYDINWVRQAPGQGLEWVGLINPREDSTSYAQKFQGRVTMTRDTSTSTMYMELSSLRSEDTAVYFCARDLGSIREVLYYGMDVWGQGTTVTVSS
VL: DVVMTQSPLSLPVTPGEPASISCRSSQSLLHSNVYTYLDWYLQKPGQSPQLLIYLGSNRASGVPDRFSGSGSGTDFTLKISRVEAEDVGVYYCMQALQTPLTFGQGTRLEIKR
